# Data published in patent US5731419.
# Target: glutathione reductase (Type III, Sigma)
remaining glutathione reductase activity after denaturation (percent of control) (scale: % of control activity),"remaining glutathione reductase activity after denaturation (percent of control) (% of control activity (-20° C., 1 µg/ml))",Substance
71,,"Bovine serum albumin (Pharmacia, DNase free 10 mg/ml) (from UniProt P02769)"
,42,"WCOR410 protein, expressed from pET22b and purified with the His*Bind buffer kit"
,40,"Wcs120 protein (50 kDa protein), expressed in E. coli from pET11a and purified"
